Measurements taken from PMC6433916.

Columns and labels:
GST-C/EBPβ-bZIP (rat) [1] = biological target: T1, GST-C/EBPβ-bZIP (rat) (UniProt P21272); assay: fluorescence anisotropy competition; conditions: 25 mM Tris-HCl pH 7.6, 75 mM NaCl, 150 mM KCl, 5 mM MgCl2, 0.1 mM DTT, 0.01% NP-40, room temperature, 20 min
T1 sequence: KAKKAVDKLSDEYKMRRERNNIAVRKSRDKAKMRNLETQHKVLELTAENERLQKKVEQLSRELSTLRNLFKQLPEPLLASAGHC

GST-C/EBPβ-bZIP (rat) [2] = biological target: T1, GST-C/EBPβ-bZIP (rat); assay: fluorescence anisotropy; conditions: 25 mM Tris-HCl pH 7.6, 75 mM NaCl, 150 mM KCl, 5 mM MgCl2, 0.1 mM DTT, 0.01% NP-40, room temperature, 20 min

Sequence	Ki (GST-C/EBPβ-bZIP (rat) [1]) [nM]	further results
CCCTGATTGCGCAATAGGCTC (double strand) [Consensus C/EBPβ competitor]		Ki (GST-C/EBPβ-bZIP (rat) [1]; vs 15 nM BS1 probe, 125 nM protein): 27 nM
CCCTGATTGCAAAATAGGCTC (double strand) [BS2 competitor]	66	
CCCTGCTTACACAATAGGCTC (double strand) [BS1 competitor]	83	
CCCTGCTTGCATAACAGGCTC (double strand) [HPV18 BS2L competitor]	154	
TTTGGCTTACACAATTGCTTT (double strand) [BS1 probe]		Kd (GST-C/EBPβ-bZIP (rat) [2]): 62 nM
